B1: TPR t1 (parent)
chain: GACCAAUCUGCCCUCAGAGCUCGAGAACAUCUUCGGAUGCAGAGGAGGCAGGCUUCGGUGGCGCGAUAGCGCCAACGUCCUCAACCUCCAAUGCAUCCCACCACAUGAUGAUGCCUGAAGAGCCUUGGUUUUUUG

Variants of: B1
Experiment: polymerase ribozyme fitness, log enrichment relative to wild type (log ratio); higher = more active; in vitro selection for triplet polymerase activity
Procedure, shortened: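 Mutant libraries were PCR-built and transcribed for each subunit of a heterodimeric triplet polymerase ribozyme and selected for one round in triplicate at −7 °C, frozen, before gel excision of extended constructs and streptavidin-bead capture. Input and output libraries were Illumina-sequenced, keeping genotypes with ≥10 input reads and ≥1 read per output. Fitness is a logarithmic ratio of genotype to wild-type enrichment, in base 2, using inverse-variance-weighted replicate averages.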

Variant | polymerase ribozyme fitness (log ratio)
G61C U112A | -0.897
G60A U78A G107C A111U | -5.18
G60A A118U U126A | -2.3
G61A C73A C123A | -0.908
U59C C64U U81A | -1.8
U59C C123G | 1.95
U59G C62A A95U | -3.76
G61A U112G G120U G122C | -1.64
G61C G107C C114A A119U | -6.57
G61A U81G A105U U112G | -5.6
G61U U81G C86U G120U | -2.64
U59G U92A | -3.4
G60U G93A C98G | -6.44
G60C A74C | -4.67
G61A G113U | -2.69
C62A U81G | -5.64
G60A A103C A111C | -4.91
U59C C102A C115G | -4.44
G61A U112A C124U | 1.83
G60A U78A U92C | -1.57
G61U C97A C123A | -4.17

Variant | polymerase ribozyme fitness (log ratio)
C62A G77C U87A | -1.71
G61U C97A | -3.26
G60C U81A A83C | -3.92
U59C C86U | -1.17
G60A G63A C114U | -4.85
G60U U92A | -3.34
G61C C94U | -1.25
G61C C94G | -2.92
C62A C94U | -1.76
C62A A95U | -1.55
C62A C101A G113A | -2.77
C62A C114A | -2.71
G60U A90G C123A U125A G135A | 1.61
G60A U116C A118C | -3.05
G61U G113C U130G G135U | -3.21
G61A U130C | 0.204
G60A G63U | -3.96
G60U C114U | -2.1
C62A G110C G127U | -5.37
G60C C123A | -0.064
G61C U81A C124G U132C | -2.36

Variant | polymerase ribozyme fitness (log ratio)
G61U A119G | 1.3
G60A G113C G135U | -5.16
G61U U81A | -0.596
G61U A84G U96G | -0.74
G61A U78G C85U A90C | -2.22
G61A C70U G120U C123G | -0.0638
G60U C97A | -5.24
G60U C97U | -1.7
G60A U125A | -0.369
G60C C114A | -1.83
C62A C101A A111C | -1.51
C62A G117C | -4.72
G61U C102U | -1.65
C62A C85G | -2.62
G61C C104U A111C | -1.59
G61U G128A | -1.7
G61A C72U G77U | -0.134
G61A G128U | -2.15
G61U U133G | -0.566
G60C A95C | -1.25
G60U U132A | -0.036

Variant | polymerase ribozyme fitness (log ratio)
G61C C123G | 0.189
G61U C82G A91C U112C | 0.876
G61U U87A A121U | 1.5
G60A A108G G117A | -3.74
G61A A84U C94A U131C | -0.628
G61C C98U C123G U133A G135U | -1.22
G60C G69A | -4.01
G61U C99A | -5.7
G61U C86A A103C | -5.4
G60U C80A U106A | -3.14
C62A G120C | -0.534
C62A U78C G117A | -3.04
G61A U133A | -0.418
C62A A66U | -3.17
U59C G60C | -0.854
U59C C114A U130A | -2.23
C62A G77U C115G | -2.95
G61U U81C C86G G113U A119U | -6.31
G60A G93A C99U | -5.15
G61A C97U | -0.149
G60U C89A A118G | -1.39

Reference: the RNAGym collection of RNA variant scans (doi:10.1073/pnas.2313332121)
